This series concerns the molecule itself. Put plainly: TEM, SEM, AFM, CD and FTIR of the assembled peptide; peptide assembled in 40% acetonitrile/water with 0.1% TFA for a month.

B1: Ac-KLVFFAL-CONH2 (peptide)
peptide: Ac-KLVFFAL-NH2
notes: also called Ac-KL nanotubes; amylobots (chassis); source: short nanotubes by probe sonication
As for B1, the binding result is listed as “binds”.

(Values after paper PMC10516904, “Dual enzyme-powered chemotactic cross β amyloid based functional nanomotors” (Nature Communications, 2023).)
